# In patent US20180311371A1 (Hoffmann-La Roche, published 2018):
# Like-named read-outs stand apart in the source and are kept apart here.
# T1: minipig TPBG, full length, cell surface expressed on CHO-K1 cells (minipig)
# T1 construct: also called pgTPBG; mpTPBG
# T1 chain: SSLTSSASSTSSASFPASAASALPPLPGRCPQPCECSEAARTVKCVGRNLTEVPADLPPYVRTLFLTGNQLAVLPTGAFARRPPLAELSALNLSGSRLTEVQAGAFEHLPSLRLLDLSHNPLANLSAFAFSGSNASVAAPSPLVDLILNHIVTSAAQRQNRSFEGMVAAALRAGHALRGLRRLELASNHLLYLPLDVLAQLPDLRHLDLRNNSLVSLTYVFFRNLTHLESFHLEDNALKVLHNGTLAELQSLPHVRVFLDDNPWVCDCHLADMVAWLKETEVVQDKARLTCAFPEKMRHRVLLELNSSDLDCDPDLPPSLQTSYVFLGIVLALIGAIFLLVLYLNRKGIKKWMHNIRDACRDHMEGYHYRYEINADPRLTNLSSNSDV
# T2: human TPBG (trophoblast glycoprotein), full length, cell surface expressed (human, UniProt Q13641 32-420)
# T2 sequence: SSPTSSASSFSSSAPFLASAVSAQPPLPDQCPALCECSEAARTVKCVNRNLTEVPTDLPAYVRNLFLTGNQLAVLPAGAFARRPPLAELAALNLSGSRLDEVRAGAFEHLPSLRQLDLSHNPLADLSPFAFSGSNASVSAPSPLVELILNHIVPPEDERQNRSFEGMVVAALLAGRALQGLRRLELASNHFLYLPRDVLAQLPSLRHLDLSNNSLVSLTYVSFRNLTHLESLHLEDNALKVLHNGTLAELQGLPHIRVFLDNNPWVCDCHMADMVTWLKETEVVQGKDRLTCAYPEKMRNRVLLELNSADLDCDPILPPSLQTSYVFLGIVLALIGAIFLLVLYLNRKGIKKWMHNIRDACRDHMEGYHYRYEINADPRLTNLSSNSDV
# T3: huTPBG (recombinant human TPBG immobilised on the Biacore chip) (human, UniProt Q13641 32-355, limits assumed)
# T3 construct: also called human TPBG antigen
# T3 sequence: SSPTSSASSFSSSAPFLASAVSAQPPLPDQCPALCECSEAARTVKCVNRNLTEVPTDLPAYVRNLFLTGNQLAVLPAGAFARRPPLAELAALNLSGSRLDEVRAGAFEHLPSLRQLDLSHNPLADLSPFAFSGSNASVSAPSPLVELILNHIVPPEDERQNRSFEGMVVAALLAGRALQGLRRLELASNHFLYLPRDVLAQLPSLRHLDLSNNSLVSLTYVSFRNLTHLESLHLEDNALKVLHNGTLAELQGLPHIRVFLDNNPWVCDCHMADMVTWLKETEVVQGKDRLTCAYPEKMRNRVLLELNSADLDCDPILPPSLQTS
# T4: human TPBG extracellular domain, His6Avi, biotinylated (human, biotinylated)
# T4 construct: also called huTPBG; human TPBG-AviHis
# T4 chain: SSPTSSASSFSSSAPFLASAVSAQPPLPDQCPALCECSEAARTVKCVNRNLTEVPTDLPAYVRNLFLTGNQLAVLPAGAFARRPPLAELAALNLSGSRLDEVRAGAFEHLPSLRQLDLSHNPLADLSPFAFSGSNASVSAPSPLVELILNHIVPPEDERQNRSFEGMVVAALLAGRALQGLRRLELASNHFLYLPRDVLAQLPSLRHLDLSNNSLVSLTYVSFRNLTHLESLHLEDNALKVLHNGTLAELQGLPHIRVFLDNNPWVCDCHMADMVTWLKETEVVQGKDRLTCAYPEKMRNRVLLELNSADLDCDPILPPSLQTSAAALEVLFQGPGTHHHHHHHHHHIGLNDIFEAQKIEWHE
# T5: minipig TPBG extracellular domain, His6Avi, biotinylated (minipig, biotinylated)
# T5 construct: also called mpTPBG; minipig TPBG-AviHis
# T5 chain: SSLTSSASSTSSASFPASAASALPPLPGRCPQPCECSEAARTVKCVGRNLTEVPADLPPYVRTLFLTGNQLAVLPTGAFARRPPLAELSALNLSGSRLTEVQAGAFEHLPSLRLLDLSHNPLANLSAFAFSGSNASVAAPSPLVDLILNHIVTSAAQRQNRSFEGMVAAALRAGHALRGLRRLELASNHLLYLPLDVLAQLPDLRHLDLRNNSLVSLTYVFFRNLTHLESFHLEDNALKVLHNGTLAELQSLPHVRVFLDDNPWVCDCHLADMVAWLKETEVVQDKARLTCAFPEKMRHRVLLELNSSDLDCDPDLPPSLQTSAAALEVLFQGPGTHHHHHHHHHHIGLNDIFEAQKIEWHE
# T6: recombinant extracellular domain of minipig TPBG (Biacore analyte) (minipig)
# T6 chain: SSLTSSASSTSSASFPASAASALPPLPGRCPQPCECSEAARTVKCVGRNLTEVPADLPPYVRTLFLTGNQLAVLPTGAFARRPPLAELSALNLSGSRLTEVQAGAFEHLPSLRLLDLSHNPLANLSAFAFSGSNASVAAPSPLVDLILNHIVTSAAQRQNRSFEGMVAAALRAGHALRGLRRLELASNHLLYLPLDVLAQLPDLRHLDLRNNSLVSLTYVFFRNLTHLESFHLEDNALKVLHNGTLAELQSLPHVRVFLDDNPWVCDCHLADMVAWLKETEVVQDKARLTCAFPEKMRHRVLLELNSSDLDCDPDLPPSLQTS
# B1: anti-TPBG 051 Fab-PE fusion protein (refolded from E. coli inclusion bodies) (Fab)
# heavy: MEVQLLESGGGLLQPGGSLRLSCAASGFTFSIYWMTWVRQAPGKGLEWVSAISGSGGSTYYADSVKGRFTISRDNSKNTLYLQMNSLRAEDTAVYYCAKDYYSNVYWGQGTLVTVSSASTKGPSVFPLAPSSKSTSGGTAALGCLVKDYFPEPVTVSWNSGALTSGVHTFPAVLQSSGLYSLSSVVTVPSSSLGTQTYICNVNHKPSNTKVDKKVEPKSCDKTHKASGGRHRQPRGWEQLGGGGGSPTGAEFLGDGGDVSFSTRGTQNWTVERLLQAHAQLEERGYVFVGYHGTFLEAAQSIVFGGVAARSQDLAAIWAGFYIAGDPALAYGYAQDQEPDAAGRIRNGALLRVYVPASSLPGFYRTSLTLAAPEAAGEVERLIGHPLPLALDAITGPEEEGGRLETILGWPLAERTVVIPSAIPTDPRNVGGDLDPSSIPDKEQAISALPDYASQPGKPPREDLK
# light: MDIQMTQSPSSVSASVGDRVTITCRASQGIYSWLAWYQQKPGKAPKLLIYAASSLQSGVPSRFSGSGSGTDFTLTISSLQPEDFATYYCQQSDSPPYTFGQGTKLEIKRTVAAPSVFIFPPSDEQLKSGTASVVCLLNNFYPREAKVQWKVDNALQSGNSQESVTEQDSKDSTYSLSSTLTLSKADYEKHKVYACEVTHQGLSSPVTKSFNRGEC
# notes: also called Fab-PE comprising antibody 051
# B2: anti-TPBG antibody 051, Fab fragment (Fab, V domains shown)
# VH: EVQLLESGGGLLQPGGSLRLSCAASGFTFSIYWMTWVRQAPGKGLEWVSAISGSGGSTYYADSVKGRFTISRDNSKNTLYLQMNSLRAEDTAVYYCAKDYYSNVYWGQGTLVTVSS
# VL: DIQMTQSPSSVSASVGDRVTITCRASQGIYSWLAWYQQKPGKAPKLLIYAASSLQSGVPSRFSGSGSGTDFTLTISSLQPEDFATYYCQQSDSPPYTFGQGTKLEIK
# notes: also called Fab3
# B3: anti-TPBG antibody 051 (mAb) (antibody, V domains shown)
# VH: B2 VH
# VL: B2 VL
# Columns and labels:
# [1] = biological target: T1, minipig TPBG, full length, cell surface …; test: flow cytometry on CHO-K1 stably expressing minipig TPBG; Fab-PE fusion
# [2] = biological target: T2, human TPBG (trophoblast glycoprotein), …; test: cell-based or functional assay
# [3] = biological target: T2, human TPBG (trophoblast glycoprotein), …; test: cell-based or functional assay; remark: listed apart in the source
# [4] = biological target: T3, huTPBG (recombinant human TPBG …); test: SPR Biacore T200; huTPBG amine-coupled, Fab-PE injected; pH 7.4
# [5] = biological target: T2, human TPBG (trophoblast glycoprotein), …; test: cell-based or functional assay; remark: listed apart in the source
# [6] = biological target: T2, human TPBG (trophoblast glycoprotein), …; test: cell-based or functional assay; remark: listed apart in the source
# [7] = biological target: T2, human TPBG (trophoblast glycoprotein), …; test: flow cytometry on CHO-K1 stably expressing human TPBG; Fab-PE fusion
# [8] = biological target: T1, minipig TPBG, full length, cell surface …; test: cell-based or functional assay
# [9] = biological target: T2, human TPBG (trophoblast glycoprotein), …; test: cell-based or functional assay; remark: listed apart in the source
# [10] = biological target: T3, huTPBG (recombinant human TPBG …); test: SPR Biacore T200; huTPBG amine-coupled, Fab-PE injected; pH 5.5
# [11] = biological target: T2, human TPBG (trophoblast glycoprotein), …
# [12] = biological target: T2, human TPBG (trophoblast glycoprotein), …; test: cell-based or functional assay; remark: listed apart in the source
# [13] = biological target: T1, minipig TPBG, full length, cell surface …; test: cell-based or functional assay
# [14] = biological target: T2, human TPBG (trophoblast glycoprotein), …; test: cell-based or functional assay; remark: listed apart in the source
# [15] = biological target: T2, human TPBG (trophoblast glycoprotein), …; test: flow cytometry on SW620 clone 4 cells; ratio of MFI; replicate 2
# [16] = biological target: T2, human TPBG (trophoblast glycoprotein), …; test: cell ELISA on MCF7 cells; titrated from 5 µg/ml
# [17] = biological target: T2, human TPBG (trophoblast glycoprotein), …; test: cell-based or functional assay; remark: listed apart in the source
# [18] = biological target: T4, human TPBG extracellular domain, …; test: ELISA; biotinylated TPBG-AviHis on streptavidin plate; Fab titrated from 2 µg/ml
# [19] = biological target: T5, minipig TPBG extracellular domain, …; test: as above
# [20] = biological target: T6, recombinant extracellular domain of …; test: SPR Biacore T200; Fab captured by anti-huFab, minipig TPBG injected
# [21] = biological target: T3, huTPBG (recombinant human TPBG …); test: SPR Biacore T200; huTPBG amine-coupled, Fab injected
# [22] = biological target: T2, human TPBG (trophoblast glycoprotein), …; test: flow cytometry on SW620 clone 4 cells; ratio of MFI; replicate 1
# [23] = biological target: T2, human TPBG (trophoblast glycoprotein), …; test: cell-based or functional assay; remark: listed apart in the source
# [24] = biological target: T7, human TPBG extracellular domain, huIgG1-Fc-His6 (human); test: ELISA; Fc-TPBG coated; mAb titrated from 1 µg/ml
# T7 construct: also called Fc-TPBG (hu)
# [25] = biological target: T8, minipig TPBG extracellular domain, huIgG1-Fc-His (minipig); test: ELISA; Fc-TPBG coated; mAb titrated from 1 µg/ml
# T8 construct: also called Fc-TPBG (mp)
binder,measurement,setting,value
B1,EC50,[1],16.9 nM
same,"EC50 cytotoxicity, Fab-PE fusion, H1975, replicate 1",[2],0.016 nM
same,"EC50 cytotoxicity, Fab-PE fusion, H1975, replicate 2",[2],0.014 nM
same,"X-fold higher potency than Fab-PE fusion protein of H8, H1975, 10 min",[3],1.1 fold
same,"X-fold higher potency than Fab-PE fusion protein of H8, H1975, 30 min",[3],1 fold
same,"X-fold higher potency than Fab-PE fusion protein of H8, H1975, 60 min",[3],1 fold
same,"X-fold higher potency than Fab-PE fusion protein of H8, H1975, continuous",[3],1.1 fold
same,Kd,[4],0.121 nM
same,koff,[4],3.46e-05 s⁻¹
same,kon,[4],286000 M⁻¹ s⁻¹
same,"EC50 protein synthesis inhibition (luciferase), BxPC-3, replicate 1",[5],0.027 nM
same,"EC50 protein synthesis inhibition (luciferase), BxPC-3, replicate 2",[5],0.015 nM
same,"EC50 proliferation, H1975, 10 min exposure",[6],0.241 nM
same,"EC50 proliferation, H1975, 30 min exposure",[6],0.204 nM
same,"EC50 proliferation, H1975, 60 min exposure",[6],0.18 nM
same,"EC50 proliferation, H1975, continuous exposure",[6],0.014 nM
same,EC50,[7],12.4 nM
same,"EC50 cytotoxicity, Fab-PE fusion, stable CHO-K1 pgTPBG",[8],1.37 nM
same,X-fold lower potency pgTPBG versus huTPBG,[8],51.7 fold
same,"EC50 cytotoxicity, Fab-PE fusion, stable CHO-K1 huTPBG",[9],0.03 nM
same,Kd,[10],0.292 nM
same,koff,[10],0.000113 s⁻¹
same,kon,[10],386000 M⁻¹ s⁻¹
same,EC50,[11],1.25 nM
B2,"EC50 cytotoxicity, Fab-PE sandwich construct, MCF7",[12],1.35 nM
same,"X-fold higher potency compared to TPBG(H8)PE, MCF7",[12],1.1 fold
same,"EC50 cytotoxicity, Fab + anti-kappa-Fab-PE, CHO-K1/minipig TPBG, replicate 1",[13],6.18 nM
same,"EC50 cytotoxicity, Fab + anti-kappa-Fab-PE, CHO-K1/minipig TPBG, replicate 2",[13],5.04 nM
same,"EC50 cytotoxicity, Fab + anti-kappa-Fab-PE, CHO-K1/human TPBG, replicate 1",[14],0.28 nM
same,"EC50 cytotoxicity, Fab + anti-kappa-Fab-PE, CHO-K1/human TPBG, replicate 2",[14],0.38 nM
same,Fold change pH 7.2 vs pH 5.5,[15],1.1 fold
same,EC50,[16],0.0575 µg/mL
same,"internalization after 0.5 h, MCF7 cells",[17],31%
same,"internalization after 1.0 h, MCF7 cells",[17],55%
same,"internalization after 2.0 h, MCF7 cells",[17],72%
same,EC50,[18],0.0181 µg/mL
same,EC50,[19],0.175 µg/mL
same,Kd,[20],2.05 nM
same,koff,[20],0.000193 s⁻¹
same,kon,[20],94000 M⁻¹ s⁻¹
same,Kd,[21],0.16 nM
same,koff,[21],7.83e-05 s⁻¹
same,kon,[21],489000 M⁻¹ s⁻¹
same,Fold change pH 7.2 vs pH 5.5,[22],1.1 fold
same,"EC50 cytotoxicity, Fab-PE sandwich construct, H1975, replicate 1",[23],0.522 nM
same,"EC50 cytotoxicity, Fab-PE sandwich construct, H1975, replicate 2",[23],0.397 nM
same,"EC50 cytotoxicity, Fab-PE sandwich construct, H1975, replicate 3",[23],0.527 nM
B3,binding result,[24],binds
same,binding result,[25],binds
